Consider three molecules from US7122624 (dated 2006).

No end group written: not given here.

The target in one experiment is glucagon receptor (human, UniProt P47871). In words: competition, COS-7 cells, up to 1 uM.
The next experiment has as its target T1, PTH2 receptor (human).
T1 chain: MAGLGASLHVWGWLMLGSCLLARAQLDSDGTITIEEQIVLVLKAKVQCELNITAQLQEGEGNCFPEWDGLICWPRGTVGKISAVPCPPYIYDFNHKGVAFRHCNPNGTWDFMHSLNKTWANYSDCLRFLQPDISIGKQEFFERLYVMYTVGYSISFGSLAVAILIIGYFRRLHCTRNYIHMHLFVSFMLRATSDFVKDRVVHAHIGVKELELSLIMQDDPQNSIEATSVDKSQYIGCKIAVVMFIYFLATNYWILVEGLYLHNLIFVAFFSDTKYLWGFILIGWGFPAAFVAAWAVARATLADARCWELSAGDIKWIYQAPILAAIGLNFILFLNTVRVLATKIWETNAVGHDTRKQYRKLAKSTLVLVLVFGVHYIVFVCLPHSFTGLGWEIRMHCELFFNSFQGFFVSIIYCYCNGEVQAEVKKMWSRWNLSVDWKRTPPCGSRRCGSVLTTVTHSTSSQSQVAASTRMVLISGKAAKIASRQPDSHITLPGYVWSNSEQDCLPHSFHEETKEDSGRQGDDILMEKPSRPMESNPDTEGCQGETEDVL
In words: competition, [125I]TIP39, 10 uM GTPgS, HEK293 membranes.

Experiment [1] has as its target T2, PTH1 receptor (human, UniProt Q03431).
T2 chain: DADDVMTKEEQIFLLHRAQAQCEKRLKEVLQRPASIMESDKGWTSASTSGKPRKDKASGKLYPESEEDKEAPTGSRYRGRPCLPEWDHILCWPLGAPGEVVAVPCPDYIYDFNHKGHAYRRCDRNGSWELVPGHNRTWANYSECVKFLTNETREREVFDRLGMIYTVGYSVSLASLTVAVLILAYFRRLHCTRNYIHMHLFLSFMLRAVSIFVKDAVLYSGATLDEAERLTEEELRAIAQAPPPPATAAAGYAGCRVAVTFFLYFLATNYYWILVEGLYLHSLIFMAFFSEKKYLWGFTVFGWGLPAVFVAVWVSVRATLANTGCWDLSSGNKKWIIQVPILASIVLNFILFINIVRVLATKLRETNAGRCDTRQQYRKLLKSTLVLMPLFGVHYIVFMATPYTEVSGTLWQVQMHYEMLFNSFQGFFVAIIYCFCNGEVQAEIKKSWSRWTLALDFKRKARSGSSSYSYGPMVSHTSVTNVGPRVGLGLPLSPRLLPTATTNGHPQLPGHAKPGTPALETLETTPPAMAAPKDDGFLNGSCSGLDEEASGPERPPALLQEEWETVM
In words: competition, [125I]rPTH(1-34), 10 uM GTPgS, HEK293 membranes.

Experiment [2] has as its target T2, PTH1 receptor. The experiment can be described thus: other, radioligand saturation, HEK293 membranes, 21C.
The target in experiment [3] is T2, PTH1 receptor. In words: other, radioligand kinetics, HEK293 membranes, 21C.

Sequence of glucagon receptor (P47871 26-477): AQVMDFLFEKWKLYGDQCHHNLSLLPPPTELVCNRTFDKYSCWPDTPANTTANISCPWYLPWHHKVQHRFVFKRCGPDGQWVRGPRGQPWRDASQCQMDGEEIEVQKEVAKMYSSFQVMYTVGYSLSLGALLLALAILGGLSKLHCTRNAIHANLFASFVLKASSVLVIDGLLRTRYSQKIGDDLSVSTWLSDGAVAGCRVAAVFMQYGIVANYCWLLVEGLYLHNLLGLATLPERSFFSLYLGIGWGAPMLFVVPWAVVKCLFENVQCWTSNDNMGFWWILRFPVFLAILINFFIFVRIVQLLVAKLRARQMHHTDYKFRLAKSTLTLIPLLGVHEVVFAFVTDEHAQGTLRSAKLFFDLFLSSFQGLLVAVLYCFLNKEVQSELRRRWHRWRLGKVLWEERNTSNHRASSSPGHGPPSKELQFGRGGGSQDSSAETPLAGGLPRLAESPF

B1: TIP39 (peptide)
chain: SLALADDAAFRERARLLAALERRHWLNSYMHKLLVLDAP
For B1, the binding result with glucagon receptor was “no binding”.

B2: TIP(7-39) (peptide)
chain: DAAFRERARLLAALERRHWLNSYMHKLLVLDAP
Broadly, the IC50 is the concentration needed to halve the response being measured. A higher IC50 goes with lower potency. For B2, the IC50 in the experiment with PTH2 receptor amounted to 98 nM; in the experiment with PTH1 receptor [1] it was 5 nM.

B3: [125I]TIP(7-39) (peptide)
chain: DAAFRERARLLAALERRHWLNSYMHKLLVLDAP
modifications: also: 125I label, site not given here
As usually defined, the Kd is the free concentration of one partner at which half of the binding sites on the other are occupied at equilibrium, for simple one-to-one binding. The low end stands for higher affinity, the high end for lower affinity. With B3, the results for the Kd with PTH1 receptor [2] and with PTH1 receptor [3] were 1.3 nM and 0.57 nM, respectively.
